In patent US20180194862A1 (AbbVie / Abbott, published 2018):
Where two headings read alike, the source gives them in different places.

Experiments:
[1] = target: T1, human CD40 on cells (HEK293 stable transfectants, HEK-Blue CD40 cells, human B cells, monocytic cells, … (human, UniProt P25942 21-277)); assay: FACS, HEK293 transfectants
T1 construct: also called cell-surface CD40

mouse CD40 [2] = target: T2, mouse CD40 (mouse, UniProt P27512 20-193, limits assumed); assay: FACS
T2 construct: also called murine CD40
T2 sequence (looked up): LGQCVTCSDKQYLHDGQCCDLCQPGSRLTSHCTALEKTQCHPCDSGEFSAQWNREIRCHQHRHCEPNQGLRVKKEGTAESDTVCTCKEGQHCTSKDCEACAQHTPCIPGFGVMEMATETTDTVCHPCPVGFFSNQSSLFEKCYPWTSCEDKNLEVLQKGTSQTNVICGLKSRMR

dog CD40 = target: T3, dog CD40 (dog, UniProt Q7YRL5 21-194, limits assumed); assay: FACS
T3 sequence (looked up): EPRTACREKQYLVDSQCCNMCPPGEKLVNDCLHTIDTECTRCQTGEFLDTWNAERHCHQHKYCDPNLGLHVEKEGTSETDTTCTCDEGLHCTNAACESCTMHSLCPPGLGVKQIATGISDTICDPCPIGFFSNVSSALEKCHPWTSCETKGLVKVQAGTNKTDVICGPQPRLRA

[3] = target: T1, human CD40 on cells (HEK293 stable …); assay: cell-based or functional assay
cynomolgus mesothelin [4] = target: T4, cynomolgus mesothelin (cynomolgus); assay: SPR
T4 construct: also called cynoMSLN; Cyno MSLN

human mesothelin [5] = target: T5, human mesothelin (human, UniProt Q13421 296-580, limits assumed); assay: SPR
T5 construct: also called Human MSLN

[6] = target: T6, soluble form of the extracellular domain of human CD40 (Creative BioMart) (human, UniProt P25942 21-193); assay: SPR
T6 construct: Bought

[7] = target: T7, soluble form of the extracellular domain of cynomolgus (cyno) CD40 (Creative BioMart) (cynomolgus, UniProt G7PG38 21-193); assay: SPR
T7 construct: extracellular domain; also called Cynomolgus CD40

human mesothelin [8] = target: T5, human mesothelin; assay: SPR; remark: listed apart in the source
cynomolgus mesothelin [9] = target: T4, cynomolgus mesothelin; assay: SPR; remark: listed apart in the source
[10] = target: T6, soluble form of the extracellular …; assay: SPR; remark: listed apart in the source
[11] = target: T7, soluble form of the extracellular …; assay: SPR, fast kinetics
MSLN (Table 10-1) = target: T8, MSLN (Table 10-1); assay: MSLN binding, format not stated
T8 chain: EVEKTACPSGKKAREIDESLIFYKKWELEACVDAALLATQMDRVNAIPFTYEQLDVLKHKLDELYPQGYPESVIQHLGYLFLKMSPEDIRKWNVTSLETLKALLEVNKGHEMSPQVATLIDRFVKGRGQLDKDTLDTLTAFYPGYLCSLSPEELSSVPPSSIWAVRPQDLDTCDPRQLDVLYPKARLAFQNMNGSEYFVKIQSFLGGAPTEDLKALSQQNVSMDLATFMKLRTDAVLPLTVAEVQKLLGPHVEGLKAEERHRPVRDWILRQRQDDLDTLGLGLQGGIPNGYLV

mouse CD40 [12] = target: T2, mouse CD40; assay: CD40 binding, format not stated

T6 sequence (P25942 21-193 limits assumed): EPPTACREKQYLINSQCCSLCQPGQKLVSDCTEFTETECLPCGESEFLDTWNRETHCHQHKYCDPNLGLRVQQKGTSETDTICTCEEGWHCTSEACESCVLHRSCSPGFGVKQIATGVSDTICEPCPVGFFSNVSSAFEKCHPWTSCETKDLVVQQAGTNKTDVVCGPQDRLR
T1 sequence (P25942 21-277 limits assumed): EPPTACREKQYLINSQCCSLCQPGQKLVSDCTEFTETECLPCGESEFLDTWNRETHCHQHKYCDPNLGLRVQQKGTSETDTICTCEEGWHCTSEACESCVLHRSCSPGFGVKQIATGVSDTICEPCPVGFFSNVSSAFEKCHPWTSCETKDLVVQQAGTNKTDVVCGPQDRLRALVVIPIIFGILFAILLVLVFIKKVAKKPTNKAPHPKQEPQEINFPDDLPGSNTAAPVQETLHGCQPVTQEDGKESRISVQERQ

B1: huAb8-2 (antibody, human IgG1, V domains shown)
VH: EVQLVQSGAEVKKPGSSVKVSCKASGYTFTDYYINWVRQAPGQGLEWIGWIFPGSGSVYSNEQFKGRATLTVDRSTSTAYMELSSLRSEDTAVYFCASSLGKFAYWGQGTLVTVSS
VL: DIQMTQSPSSLSASVGDRVTITCKASQSVVTAVAWYQQKPGKSPKLLIYSASNRYTGVPSRFSGSGSGTDFTLTISSLQPEDFATYFCQQYSSYPYTFGGGTKVEIK
notes: human IgG1, kappa
B1: binds [1]; no binding (mouse CD40 [2]); no binding (dog CD40).

B2: CF1 (bispecific antibody, human IgG1, lambda)
heavy: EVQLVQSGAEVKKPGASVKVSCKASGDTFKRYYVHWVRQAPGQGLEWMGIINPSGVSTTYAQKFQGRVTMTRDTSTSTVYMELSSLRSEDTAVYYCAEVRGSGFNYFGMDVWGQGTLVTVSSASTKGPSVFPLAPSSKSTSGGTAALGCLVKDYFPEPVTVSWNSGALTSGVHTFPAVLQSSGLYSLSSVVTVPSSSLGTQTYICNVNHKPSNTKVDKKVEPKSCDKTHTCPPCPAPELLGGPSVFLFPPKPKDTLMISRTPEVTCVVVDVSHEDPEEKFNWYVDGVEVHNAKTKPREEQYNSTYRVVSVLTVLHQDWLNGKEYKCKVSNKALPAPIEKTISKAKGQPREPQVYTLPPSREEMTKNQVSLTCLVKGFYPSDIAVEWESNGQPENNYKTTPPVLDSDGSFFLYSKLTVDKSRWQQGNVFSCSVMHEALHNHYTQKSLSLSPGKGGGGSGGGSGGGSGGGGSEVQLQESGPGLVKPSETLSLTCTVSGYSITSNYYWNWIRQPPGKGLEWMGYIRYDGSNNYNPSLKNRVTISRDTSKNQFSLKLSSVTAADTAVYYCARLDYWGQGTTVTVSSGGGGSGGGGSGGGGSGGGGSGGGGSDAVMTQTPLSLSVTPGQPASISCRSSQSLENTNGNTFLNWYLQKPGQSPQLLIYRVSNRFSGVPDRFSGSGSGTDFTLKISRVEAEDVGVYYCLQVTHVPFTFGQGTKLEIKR
light: SYELTQPPSVSVSPGQTASITCSGDKLGDKYASWYQQKPGQSPVLVIYQDNRRPSGIPERFSGSNSGNTATLTISGTQAMDEADYYCQAWDSDTYVFGTGTKVTVLGQPKAAPSVTLFPPSSEELQANKATLVCLISDFYPGAVTVAWKADSSPVKAGVETTTPSKQSNNKYAASSYLSLTPEQWKSHRSYSCQVTHEGSTVEKTVAPTECS
notes: IgG-scFv: HuAM15 Fab, IgG1 V273E, CD40 scFv
B2 was tested, and the “Max. IL-12p70, dendritic cells with cell-surface mesothelin” value [3] was 100 pg/mL, the Kd (cynomolgus mesothelin [4]) was 0.00023 µM and the koff (cynomolgus mesothelin [4]) was 7.1e-05 s⁻¹. The kon (cynomolgus mesothelin [4]) was 310000 M⁻¹ s⁻¹, the Kd (human mesothelin [5]) was 0.00047 µM and the koff (human mesothelin [5]) was 2.4e-05 s⁻¹. For the same binder, the kon (human mesothelin [5]) was 52000 M⁻¹ s⁻¹, the Kd [6] was 0.39 µM and the koff [6] was 0.26 s⁻¹. For the same binder, the kon [6] was 680000 M⁻¹ s⁻¹, the Kd [7] was < 0.15 µM and the Kd (human mesothelin [8]) was < 0.4 µM. The Kd (cynomolgus mesothelin [9]) was ≤ 0.00029 µM, the Kd [10] was < 0.4 µM and the Kd [11] was 0.15 µM.

B3: LB-1 (bispecific antibody, mouse IgG1)
chain: EVQLVESGGGLVQPGRSLKLSCAASGFTFSNYDMAWVRQAPTKGLEWVASISPSGGRTYYRDSVKGRFTVSRDNAKSTLYLQMDSLRSEDTATYYCARHDGSYFDYWGQGVMVTVSSDLSGGGGSGGGGSGGGGSGGGGSTGDTVLTQSPALAVSPGERVTISCRASESVSTLMHWYQQKPGQQPKLLIYLASHLESGVPARFSGSGSGTDFTLTIDPVEADDTATYYCQESWNDPWTFGGGTKLELKRLEVPRDSGSKPCICTVPEVSSVFIFPPKPKDVLTITLTPKVTCVVVDISKDDPEVQFSWFVDDVEVHTAQTQPREEQFNSTFRSVSELPIMHQDWLNGKEFKCRVNSAAFPAPIEKTISKTKGRPKAPQVYTIPPPKEQMAKDKVSLTCMITDFFPEDITVEWQWNGQPAENYKNTQPIMDTDGSYFVYSKLNVQKSNWEAGNTFTCSVLHEGLHNHHTEKSLSHSPGKVDGASSPVNVSSPSVQDIQVQLVQSGAEVKKPGASVKVSCKASGYTFTGNYINWVRQAPGQGLEWMGIINPTKGWTLYAQKFQGRVTMTRDTSISTAYMELSSLRSEDTAVYYCARWHHGTWIFDYWGQGTLVTVSSDLSGGGGSGGGGSGGGGSGGGGSTGDIVLTQPPSVSGAPGQRVTISCSGSSSNIGSNYVSWYQQLPGTAPKLLIYNDNQRPSGVPDRFSGSKSGTSASLAITGLQSEDEADYYCSTYDRRTFSVFGGGTKLTVLG
notes: 1C10 scFv (VH→VL), murine IgG1 hinge-CH2-CH3, MOR06626 scFv (VH→VL); also called mouse bispecific formula (I) protein LB-1
With B3 the EC50 (MSLN (Table 10-1)) was 1.39 mg/L and the EC50 (mouse CD40 [12]) was 2.75 mg/L.
